Results published in PMC5413349.

How the values were obtained:
[1] = molecular target: human cytoplasmic dynein-1 complex (recombinant, SNAPf tag on the heavy chain) (human) (UniProt Q14204); assay: single-molecule TIRF co-localisation on microtubules; Alexa647-BICD2N (10x) and TMR-dynein (20 nM in the assembly mix, 1 in 2 dilution) with EB1, dynactin (2x) and LIS1 (20x) on dynamic microtubules
[2] = molecular target: human cytoplasmic dynein-1 complex (recombinant, SNAPf tag on the heavy chain) (human) (UniProt Q14204)
[3] = molecular target: microtubules polymerised from porcine tubulin (porcine); assay: single-molecule TIRF microscopy of binding to microtubules; dynein (100 nM in the assembly mix, 1 in 20 dilution) alone or with a 20x or 300x molar excess of LIS1 on immobilised taxol/GMPCPP-stabilised microtubules, without EB1 and dynactin; 2.5 mM ATP
[4] = molecular target: native dynactin complex purified from pig brain (pig (purified from pig brain))

Chain of SNAPf::BICD2N (residues 1-400 of mouse Bicaudal-D2 with an N-terminal SNAPf tag) (Q921C5 1-400): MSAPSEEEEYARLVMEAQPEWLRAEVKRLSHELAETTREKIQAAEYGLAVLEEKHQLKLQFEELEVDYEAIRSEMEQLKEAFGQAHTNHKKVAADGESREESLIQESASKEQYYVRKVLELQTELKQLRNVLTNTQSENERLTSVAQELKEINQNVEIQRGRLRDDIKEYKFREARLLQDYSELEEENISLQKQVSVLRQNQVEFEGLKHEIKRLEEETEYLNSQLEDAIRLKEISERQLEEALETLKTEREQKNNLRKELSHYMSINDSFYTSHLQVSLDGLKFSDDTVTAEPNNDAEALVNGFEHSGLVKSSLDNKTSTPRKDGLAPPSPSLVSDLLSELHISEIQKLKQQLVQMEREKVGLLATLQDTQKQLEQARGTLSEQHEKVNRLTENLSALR

percent of plus-end tracking events of TMR-dynein with Alexa647-BICD2N signal [1] | proportion of microtubule-associated dynein complexes in minus end-directed motion with dynactin and BICD2N, without (45%) and with LIS1 (70%) [2] | fold increase of the landing rate on the lattice with a 300-fold molar excess of LIS1 against no LIS1 [3] | plus-end tracking of Alexa647-dynein on growing microtubules with EB1 and dynactin (TIRF): maximal duration of tracking events [4] | plus-end tracking of Alexa647-dynein on growing microtubules with EB1 and dynactin (TIRF): mean duration of tracking events [4] | Substance
40% | 70% | – | – | – | SNAPf::BICD2N (residues 1-400 of mouse Bicaudal-D2 with an N-terminal SNAPf tag) (from UniProt Q921C5 1-400) (domain or fragment)
– | – | 3 fold | 9 s | 4 s | human cytoplasmic dynein-1 complex (recombinant, SNAPf tag on the heavy chain) (from UniProt Q14204 1-4646; O43237-1 1-492; P63172 1-113; P63167 1-89; Q9NP97-1 1-96)
